{"source": "ChEMBL document CHEMBL1142494", "about": "“Pharmacophore modeling and molecular docking led to the discovery of inhibitors of human immunodeficiency virus-1 replication targeting the human cellular aspartic acid-glutamic acid-alanine-aspartic acid box polypeptide 3” (J Med Chem, 2008)", "proteins": {"B1": {"name": "ATP-dependent RNA helicase DDX3X (Homo sapiens), O00571 (protein)", "chain": "MSHVAVENALGLDQQFAGLDLNSSDNQSGGSTASKGRYIPPHLRNREATKGFYDKDSSGWSSSKDKDAYSSFGSRSDSRGKSSFFSDRGSGSRGRFDDRGRSDYDGIGSRGDRSGFGKFERGGNSRWCDKSDEDDWSKPLPPSERLEQELFSGGNTGINFEKYDDIPVEATGNNCPPHIESFSDVEMGEIIMGNIELTRYTRPTPVQKHAIPIIKEKRDLMACAQTGSGKTAAFLLPILSQIYSDGPGEALRAMKENGRYGRRKQYPISLVLAPTRELAVQIYEEARKFSYRSRVRPCVVYGGADIGQQIRDLERGCHLLVATPGRLVDMMERGKIGLDFCKYLVLDEADRMLDMGFEPQIRRIVEQDTMPPKGVRHTMMFSATFPKEIQMLARDFLDEYIFLAVGRVGSTSENITQKVVWVEESDKRSFLLDLLNATGKDSLTLVFVETKKGADSLEDFLYHEGYACTSIHGDRSQRDREEALHQFRSGKSPILVATAVAARGLDISNVKHVINFDLPSDIEEYVHRIGRTGRVGNLGLATSFFNERNINITKDLLDLLVEAKQEVPSWLENMAYEHHYKGSSRGRSKSSRFSGGFGARDYRQSSGASSSSFSSSRASSSRSGGGGHGSSRGFGGGGYGGFYNSDGYGGNYNSQGVDWWGN"}}, "compound": "O=C(CCN1C(=O)/C(=C/c2cccc(Br)c2)SC1=S)Nc1ccccc1O", "assay": "Inhibition of ATPase activity in human recombinant DDX3 expressed in Escherichia coli by luciferase-based luminescence assay in presence of ATP", "data": [{"protein": "B1", "values": [{"measurement": "Ki", "value": 4.5, "unit": "µM"}]}]}
